Usually Kd stands for the constant that tells how readily two partners part at equilibrium.

This assay has as its target T1, human NEK7 recombinant protein (HY-P75935, MCE) (human, UniProt Q8TDX7 1-302, RED-NHS dye label (in the MST only)).
T1 construct: NEK7, human, commercially sourced recombinant protein; the vendor's catalogue entry would tell them; source: bought: MCE (HY-P75935), recombinant, purity 94%
Description: SPR; Biacore T200; NEK7 or NEK7-mut immobilised by amine coupling; SDHB flowed at different concentrations; 1:1 Langmuir binding model. The settings on record: both partners purified.

T1 sequence (Q8TDX7 whole entry, one chain of several): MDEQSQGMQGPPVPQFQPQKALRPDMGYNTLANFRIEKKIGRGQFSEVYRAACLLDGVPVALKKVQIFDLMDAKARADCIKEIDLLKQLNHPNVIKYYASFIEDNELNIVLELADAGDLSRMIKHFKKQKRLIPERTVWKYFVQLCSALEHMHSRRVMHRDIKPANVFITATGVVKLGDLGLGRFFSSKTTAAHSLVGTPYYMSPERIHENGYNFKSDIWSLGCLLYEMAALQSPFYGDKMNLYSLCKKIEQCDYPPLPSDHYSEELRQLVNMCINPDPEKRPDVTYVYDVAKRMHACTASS

B1: human SDHB recombinant protein (Ag29868, Proteintech) (natural protein, UniProt P21912 29-280, looked up)
chain: AQTAAATAPRIKKFAIYRWDPDKAGDKPHMQTYEVDLNKCGPMVLDALIKIKNEVDSTLTFRRSCREGICGSCAMNINGGNTLACTRRIDTNLNKVSKIYPLPHMYVIKDLVPDLSNFYAQYKSIEPYLKKKDESQEGKQQYLQSIEEREKLDGLYECILCACCSTSCPSYWWNGDKYLGPAVLMQAYRWMIDSRDDFTEERLAKLQDPFSLYRCHTIMNCTRTCPKGLNPGKAIAEIKKMMATYKEKKASV
notes: SDHB, human, commercially sourced recombinant protein; the vendor's catalogue entry would tell them (such antigen proteins may be tagged fragments); source: bought: Proteintech (Ag29868), recombinant, purity 80%
Regarding B1, the Kd was determined as 349 nM.

The values above are taken from paper PMC12663309, “NEK7 couples SDHB to orchestrate respiratory chain electron transport homeostasis that impedes liver fibrosis” (Nature Communications, 2025).
